Experiment [1] addresses T1, Grb2 adapter protein (UniProt P62993 1-217).
T1 construct: Endogenous protein in cell lysates or whole cells
The experiment is described as follows: MDA-MB-453 lysates incubated with inhibitor; anti-Grb2 co-immunoprecipitation, anti-pTyr Western blot; p185erbB-2 as competitor. Here is the method:
Cell lysates were prepared from the serum-treated erbB-2-overexpressing breast cancer cell line MDA-MB-453 using 1% Triton X-100 in PBS containing 0.2 mM NaVO₄. Lysates were incubated with the present inventive cyclic peptide inhibitors specified in Example 1 and Example 12, at concentrations of 0.1, 0.4, 2, 10 and 50 μM. No inhibitor was used as a control. […] Grb2 and associated Grb2-binding proteins were immunoprecipitated from each lysate (500 μg) with anti-Grb2 antibodies and collected using protein A Sepharose using methods previously described. Immunoprecipitated proteins were separated by SDS-PAGE on 8-16% gradient gels (Novex). pTyr-containing proteins were detected by Western blotting using anti-phosphotyrosine antibodies (Upstate Biotechnology Inc.). Previous experiments have shown that a major tyrosine phosphorylated protein in MDA-MB-453 cells is p185^erbB-2, which is overexpressed as a consequence of gene amplification. […] A dose-dependent inhibition of the p185^erbB-2 receptor association with the Grb2 adapter protein was observed.
(A western blot detects proteins with antibodies after separation by electrophoresis.)

Experiment [2] deals with T2, recombinant GST-Grb2 SH2 protein (UniProt P62993 60-152).
T2 construct: not shown: glutathione S-transferase (GST) fusion partner
T2 sequence (P62993 60-152): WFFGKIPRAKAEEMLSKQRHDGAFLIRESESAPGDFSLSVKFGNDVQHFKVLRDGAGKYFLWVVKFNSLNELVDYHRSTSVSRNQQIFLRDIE
The experiment is described as follows: comparison with the Glu1 analogue as reference; assay not named in the sentence (Biacore competition of Example 7 understood). Here is the method:
(§1) The competitive binding affinity of the present inventive compounds was assessed using Biacore Surface Plasmon Resonance (SPR) methods utilizing a Biacore 2000 instrument. […] Specifically, competitive binding assays were carried out at 5 μl/min flow rate, with GST-Grb2-SH2 (150-250 nM) and a cyclic peptide inhibitor (10 nM-2 mM) in phosphate-buffered saline (PBS), pH 7.4, containing 0.01% P-20 surfactant (Biacore, Inc., Piscataway, N.J.) for a total of 10 min. The change in response units (RU) at equilibrium was measured from the […] and the percent of control (no added peptide) was calculated. […] The results represent the mean value of at least two independent experiments.
On the technique in general: In SPR one partner is held on a chip, and binding of the other changes the refractive index at the surface.

The target of experiment [3] is T2, recombinant GST-Grb2 SH2 protein. The experiment is described as follows: Biacore SPR competition; inhibitor mixed with GST-Grb2 SH2 (150-250 nM), binding to immobilised biotin-SHC(pTyr-317)-9-mer as competitor. On the procedure:
as §1

Bridges are numbered along the chain shown (N, C = ends). [ ]: non-standard residue; d: D form. Gla = N[C@@H](CC(C(=O)O)C(=O)O)C(=O)O; Aad = N[C@@H](CCCC(=O)O)C(=O)O

The term IC50 denotes the concentration that inhibits the measured activity by half.

T1 sequence (P62993 whole entry): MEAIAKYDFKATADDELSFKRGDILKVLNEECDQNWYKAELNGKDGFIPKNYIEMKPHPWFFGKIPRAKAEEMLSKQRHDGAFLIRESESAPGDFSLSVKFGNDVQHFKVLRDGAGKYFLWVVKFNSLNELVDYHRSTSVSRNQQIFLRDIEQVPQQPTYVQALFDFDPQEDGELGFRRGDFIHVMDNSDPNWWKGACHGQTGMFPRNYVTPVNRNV

B1: cyclo(CH2CO-Gla1-Leu2-Tyr3-Glu4-Asn5-Val6-Gly7-Met8-Tyr9-Cys)-NH-Ala-Ala-Val-Ala-Leu-Leu-Pro-Ala-Val-Leu-Leu-Ala-Leu-Leu-Ala-Pro (peptide)
peptide: {CH2CO}-[Gla]LYENVGMYCAAVALLPAVLLALLAP-NH2
modifications: thioether N-10; not fully specified; printed as cyclo(CH2CO-Gla1-Leu2-Tyr3-Glu4-Asn5-Val6-Gly7-Met8-Tyr9-Cys)-NH-Ala-Ala-Val-Ala-Leu-Leu-Pro-Ala-Val-Leu-Leu-Ala-Leu-Leu-Ala-Pro
In experiment [1], B1 displayed an IC50 of 2 µM.

B2: cyclo(CH2CO-Gla1-Leu2-Tyr3-Glu4-Asn5-Val6-Gly7-Met8-Tyr9-Cys)-amide (peptide)
peptide: {CH2CO}-[Gla]LYENVGMYC-NH2
modifications: thioether N-10
SMILES: CSCC[C@@H]1NC(=O)CNC(=O)[C@H](C(C)C)NC(=O)[C@H](CC(N)=O)NC(=O)[C@H](CCC(=O)O)NC(=O)[C@H](Cc2ccc(O)cc2)NC(=O)[C@H](CC(C)C)NC(=O)[C@H](CC(C(=O)O)C(=O)O)NC(=O)CSC[C@@H](C(N)=O)NC(=O)[C@H](Cc2ccc(O)cc2)NC1=O
notes: Synthetic thioether-cyclised, non-phosphorylated peptide (L = S)
For B2, the “fold improvement of binding efficacy over Glu^1” value in experiment [2] was found to be 31 fold. Besides, the IC50 in experiment [1] was determined as 2 µM; in experiment [3], 0.64 µM.

B3: cyclo(CH2CO-Adi1-Leu2-Tyr3-Glu4-Asn5-Val6-Gly7-Met8-Tyr9-Cys)-amide (peptide)
peptide: {CH2CO}-[Aad]LYENVGMYC-NH2
modifications: thioether N-10
notes: Synthetic thioether-cyclised, non-phosphorylated peptide
For B3, in experiment [2], the “fold improvement of binding efficacy over Glu^1” value worked out at 6 fold. The IC50 in experiment [3] was found to be 3.45 µM.

B4: cyclo(CH2CO-Adi1-Leu2-Tyr3-Adi4-Asn5-Val6-Gly7-Met8-Tyr9-Cys)-amide (peptide)
peptide: {CH2CO}-[Aad]LY[Aad]NVGMYC-NH2
modifications: thioether N-10
notes: as for B3
Turning to B4, the IC50 in experiment [3] came out at 3.05 µM.

The values above are taken from patent US20060014927A1 (US Dept. of Health and Human Services, published 2006).
